Data: patent US20050186662A1

Target: neonatal Fc receptor (FcRn) of the neonatal rat small intestine (rat) (UniProt P13599)
Experiment: cell-based or functional assay

Sequence of UniProt P13599 (P13599 23-366, form in doubt): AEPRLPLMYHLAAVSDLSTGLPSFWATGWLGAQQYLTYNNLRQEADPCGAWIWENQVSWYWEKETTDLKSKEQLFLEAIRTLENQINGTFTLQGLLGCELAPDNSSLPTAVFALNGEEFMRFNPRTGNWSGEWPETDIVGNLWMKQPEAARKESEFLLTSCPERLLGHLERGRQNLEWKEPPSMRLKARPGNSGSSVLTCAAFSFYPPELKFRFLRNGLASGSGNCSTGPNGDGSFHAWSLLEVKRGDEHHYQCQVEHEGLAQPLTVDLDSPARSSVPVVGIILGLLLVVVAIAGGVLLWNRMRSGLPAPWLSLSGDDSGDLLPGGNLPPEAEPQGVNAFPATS

| reduction in transport (oral delivery of 125I-labelled protein into neonatal rat serum) in the presence of 300-fold excess unlabeled human IgG1, by phosphorimage analysis [%] | Substance |
| --- | --- |
| 83 | single-chain FSH-Fc (from UniProt P01225 19-129; P01215 25-116) (Fc fusion) |
| 53 | heterodimer FSH-Fc (Fc fusion) |
